# Source: patent publication US11655308B2, “HM-3 fusion protein and application thereof” (TASLY BIOPHARMACEUTICALS CO., LTD., priority 2017, dated 2023)
# B1: IgG2-Fc-(GGGGS)3-HM-3 (protein)
# chain: VECPPCPAPPVAGPSVFLFPPKPKDTLMISRTPEVTCVVVDVSHEDPEVQFNWYVDGVEVHNAKTKPREEQFNSTFRVVSVLTVVHQDWLNGKEYKCKVSNKGLPAPIEKTISKTKGQPREPQVYTLPPSREEMTKNQVSLTCLVKGFYPSDISVEWESNGQPENNYKTTPPMLDSDGSFFLYSKLTVDKSRWQQGNVFSCSVMHEALHNHYTQKSLSLSPGKGGGGSGGGGSGGGGSIVRRADRAAVPGGGGRGD
# Assays:
# [1] = system: transgenic blood vessel fluorescent zebrafish; test: In vivo anti-angiogenesis in zebrafish (SIVs area); parameters: area of SIVs: unit not given here; details: 500 ng/tail, 24 h
# [2] = system: transgenic blood vessel fluorescent zebrafish; test: In vivo anti-angiogenesis in zebrafish (SIVs area); parameters: area of SIVs: unit not given here; details: for inhibition rate of angiogenesis / area of SIVs: 24 h; for area of SIVs: normal control group 53193
# Experimental: Experimental method: transgenic blood vessel fluorescent zebrafish was randomly selected and put into a six-well plate with 30 fish per well, and intravenously injected HM-3 polypeptide, TSL-1 fusion protein, TSL-2 fusion protein, TSL-3 fusion protein and TSL-4 fusion protein respectively in accordance with the dosage of 20 ng/tail and 66 ng/tail; the dosage was […] in Avastin positive control and the injection volume was 20 nL/tail; the zebrafish injected 20 nL/tail of buffer solution served as a solvent control group, and the zebrafish without any treatment served as a normal control group. 10 pieces of zebrafish were randomly selected from each group after processed for 24 h to observe the intestinal vessels of the transgenic zebrafish by a fluorescence microscope, as well as to take and maintain images. Image analysis was performed by Nikon MS-Elements D 3.10 to calculate the area (S) of SIVs (subintestinal vessel, SIV). The calculation formula of angiogenesis inhibition rate was as follows: Angiogenesis inhibition rate (%)=(1−S(Test sample group)/S(Normal control group))×100%
# Statistical analysis was performed by variance analysis and Dunnett's T-test and the results were expressed as Mean±SD, where p<0.05 indicates a significant difference.
# human macrophage U937 = test: TNF-α production by LPS-induced human macrophage U937 (ELISA); assay type: cell-based; details: 9 μM; LPS 1 μg/mL, 48 h; negative group 77.6±19.6
# Experimental: Experimental method: Human macrophage U937 was cultured in RPMI-1640 medium containing 10% fetal bovine serum and double antibodies in a constant temperature incubator at 37° C. under the condition of 5% CO2, and the medium was replaced every 2 days. U937 cells in the logarithmic phase were collected, resuspended and adjusted to the concentration of 5×10^5/mL. 100 μL of cells was added to each well of a 96-well plate overnight and induced with LPS (1 μg/mL) in the following day, where n=3. At the same time, the cells were treated with agents, and respectively divided into a positive control group adalimumab, an HM-3 polypeptide group, an mPEG-SC-HM-3 polypeptide group, an HM-3 fusion protein (TSL-1, TSL-2, TSL-3, TSL-4) group, and the specific dosing scheme was shown in Table 5.
# 48 h after the agents worked, culture medium was collected and centrifuged, and supernatant was taken to measure the content of TNF-α therein by ELISA. Test results were expressed as mean±SD, and statistical T test was performed. *P<0.05 indicates significant difference, **P<0.01 indicates extremely significant difference. Based upon the results, the efficacy of the HM-3 fusion protein against rheumatoid arthritis was screened.
# [3] = system: mice splenic lymphocyte proliferation stimulated by ConA; assay type: cell-based
# Experimental: Experimental method: mice orbit was by bloodletting to death, and immediately immersed in 75% ethanol for 5-10 min, and then the spleen was removed on a clean bench and placed in PBS. The spleen was placed on a sterile cell strainer (200 mesh) and ground with a syringe nozzle; during grinding process, PBS was added continuously; the slurry was collected and centrifuged (1000 rpm for 5 min), then cells were washed 3 times with Tris-ammonium chloride solution, and washed again with a medium, and then re-suspended in the medium. Finally, trypan blue living cell staining was performed on the cells, and the survival rate was more than 95%. The concentration of viable cells was adjusted to 2×10^6/mL. […] was added to each well of a 96-well plate, meanwhile, ConA (concanavalin to simulate splenocyte proliferation) and drugs were added to each well. Six duplicates were set in each group.
# The 96-well plate was incubated for 48 h in a 5% CO2 incubator at 37° C. 5 mg/mL of MTT was added to the 96-well plate, 20 μL for each well, and then it was incubated continuously for 4 h in the incubator. The culture medium in the 96-well plate was discarded and 100 μL DMSO was added to each well and mixed gently. Absorbance was measured by a microplate reader at the wavelength of 570 nm and reference wavelength of 630 nm.
# Proliferation inhibition rate (PI) was calculated according to formula:
# [formula] wherein, Atest is the absorbance of dosing group, and Acontrol is the absorbance of negative control. Test results were expressed as mean±SD, and statistical T test was performed. *P<0.05 indicates significant difference, **P<0.01 indicates extremely significant difference. Based upon the results, the efficacy of the fusion protein against rheumatoid arthritis was screened.
# In the P4 control group, TSL-4 fusion protein served as a control agent.
molecule,measurement,setting,value
Avastin: positive control in the zebrafish angiogenesis test,inhibition rate of angiogenesis,[1],29%
same,area of SIVs,[1]; normal control group 53193,37853
B1,inhibiting effect on angiogenesis,[2]; 20 ng/tail,significant inhibitory effect
same,inhibition rate of angiogenesis,[2]; 20 ng/tail iv,23%
same,area of SIVs,[2]; 20 ng/tail iv,40705
same,inhibition rate of angiogenesis,[2]; 66 ng/tail iv,27%
same,area of SIVs,[2]; 66 ng/tail iv,38660
same,TNF-α content in cell supernatant,human macrophage U937,38.6 ± 12.9 pg/mL
same,optimal (best) inhibition rate of splenic lymphocyte proliferation,"[3]; ConA 5 μg/mL, 48 h, MTT, best of the tested concentrations",61.4%
same,inhibition rate compared with the positive control group,[3]; positive group Dexamethasone 50 μmol/L,higher than that of the positive control group
